PMC3151165 (2009)

Experiments:
[1] = biological target: T1, mu opioid receptor (Rattus norvegicus, UniProt P33535); test: radioligand competition
T1 chain: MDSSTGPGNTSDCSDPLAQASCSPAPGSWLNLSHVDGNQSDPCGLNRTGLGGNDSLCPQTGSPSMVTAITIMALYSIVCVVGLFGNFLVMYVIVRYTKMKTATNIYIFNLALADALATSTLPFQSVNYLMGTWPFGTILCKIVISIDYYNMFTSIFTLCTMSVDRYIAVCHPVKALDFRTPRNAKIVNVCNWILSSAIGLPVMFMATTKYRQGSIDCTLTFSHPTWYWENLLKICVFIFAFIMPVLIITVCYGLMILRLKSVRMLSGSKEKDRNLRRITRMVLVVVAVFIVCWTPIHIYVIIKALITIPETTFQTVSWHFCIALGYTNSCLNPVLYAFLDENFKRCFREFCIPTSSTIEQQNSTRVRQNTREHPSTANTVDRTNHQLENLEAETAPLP

[2] = biological target: T2, delta opioid receptor (Mus musculus, UniProt P32300); test: radioligand competition
T2 chain: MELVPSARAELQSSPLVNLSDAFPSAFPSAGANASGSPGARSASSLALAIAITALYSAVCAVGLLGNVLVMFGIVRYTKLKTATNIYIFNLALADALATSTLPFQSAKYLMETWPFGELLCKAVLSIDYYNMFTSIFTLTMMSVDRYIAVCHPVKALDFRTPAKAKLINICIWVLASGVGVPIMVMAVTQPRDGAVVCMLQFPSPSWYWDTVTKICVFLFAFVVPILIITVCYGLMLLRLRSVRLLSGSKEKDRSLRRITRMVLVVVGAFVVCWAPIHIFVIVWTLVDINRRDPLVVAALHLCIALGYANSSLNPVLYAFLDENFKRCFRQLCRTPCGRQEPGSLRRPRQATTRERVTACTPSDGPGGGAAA

Binder	Ki [1]	Ki [2]
YGGFARRARPK (cis -CH=CH- bridge between Ala5 and Ala8 side chains, C-terminal amide) [cyclo[Ala5(-CH=CH-)Ala8]Dyn A-(1-11)NH2 cis (5)]	93 nM	–
YAGFARRIRPK (D-Ala2, cis -CH=CH- bridge between residues 2 and 5 side chains, C-terminal amide) [cyclo[D-Ala2(-CH=CH-)Ala5]Dyn A-(1-11)NH2 cis (3)]	2.33 nM	9.3 nM
YAGFARRIRPK (trans -CH=CH- bridge between Ala2 and Ala5 side chains, C-terminal amide) [cyclo[Ala2(-CH=CH-)Ala5]Dyn A-(1-11)NH2 trans (2)]	180 nM	1130 nM
YGGFARRARPK (trans -CH=CH- bridge between Ala5 and Ala8 side chains, C-terminal amide) [cyclo[Ala5(-CH=CH-)Ala8]Dyn A-(1-11)NH2 trans (6)]	36 nM	–
YAGFARRIRPK (cis -CH=CH- bridge between Ala2 and Ala5 side chains, C-terminal amide) [cyclo[Ala2(-CH=CH-)Ala5]Dyn A-(1-11)NH2 cis (1)]	763 nM	7670 nM
